Data: patent US20160145322A1

Biological target: G protein of RSV A/Long (ATCC Cat. No. VR-26), on virus (Respiratory syncytial virus A/Long) (UniProt P20895)
Test: cell-based or functional assay

Chain of G protein of RSV A/Long (ATCC Cat. No. VR-26), on virus (Respiratory syncytial virus A/Long) (P20895 whole entry): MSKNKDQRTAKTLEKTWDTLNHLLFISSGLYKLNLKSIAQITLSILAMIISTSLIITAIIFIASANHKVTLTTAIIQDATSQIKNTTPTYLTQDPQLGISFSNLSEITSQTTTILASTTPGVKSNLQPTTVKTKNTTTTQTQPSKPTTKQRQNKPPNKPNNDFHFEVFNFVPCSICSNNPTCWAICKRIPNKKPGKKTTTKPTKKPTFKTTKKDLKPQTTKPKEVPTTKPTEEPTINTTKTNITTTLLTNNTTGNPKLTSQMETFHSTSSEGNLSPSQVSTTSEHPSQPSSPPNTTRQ

B1: CR9505 (an antibody based on 131-2G, comprising the heavy and light chain variable region of 131-2G, as disclosed in WO 2009/055711) (antibody, from another filing, V domains shown)
VH: EVQLQQSGPELVKPGTSVKISCKASGYSFTGFTMNWVKQSHGKNLEWFGLINPFNGNTGYNQKFKGKATLTVDKSSSTAFMELLSLTSEDSAVYYCARSGKSYDYEAWFTYWGQGTLVTVSA
VL: DIVMTQTTLSLPVSLGNQASISCRSSQTIVHTNGNTYLEWYLQKPGQSPKLLIYKVSNRFSGVPDRFSGSGSGTDFILNISRVEAEDLGVYYCFQGSHVPFTFGSGTKLEIKR
Neutralization IC50, plaque reduction assay, RSV A/Long: 0.018 µg/mL
